Source: article PMC10698143, “Phosphorylation of MIF by PIP4K2a is necessary for cilia biogenesis” (Cell Death & Disease, 2023)

Target: T1, PIP4K2a on the HuProt human protein chip (human, UniProt P48426 1-406)
T1 construct: Phosphatidylinositol-5-phosphate 4-kinase type 2 alpha, human recombinant protein of the HuProt chip; construct not described; source: human recombinant protein, highly purified, spotted on the HuProt human protein chip
T1 sequence (looked up): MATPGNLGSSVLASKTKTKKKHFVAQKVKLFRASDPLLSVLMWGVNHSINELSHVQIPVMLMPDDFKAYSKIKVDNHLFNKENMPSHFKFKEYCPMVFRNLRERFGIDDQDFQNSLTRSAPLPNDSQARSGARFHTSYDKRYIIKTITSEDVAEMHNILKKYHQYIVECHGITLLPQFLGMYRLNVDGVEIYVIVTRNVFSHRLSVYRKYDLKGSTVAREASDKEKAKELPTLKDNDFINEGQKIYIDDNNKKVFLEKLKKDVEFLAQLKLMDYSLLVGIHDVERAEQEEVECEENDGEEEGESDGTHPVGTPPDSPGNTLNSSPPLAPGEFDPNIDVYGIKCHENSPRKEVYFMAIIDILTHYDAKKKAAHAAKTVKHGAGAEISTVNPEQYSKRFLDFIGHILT
Assay: peptide or protein array; HuProt human protein chip (>21,000 purified human recombinant proteins on nitrocellulose-coated slides), renatured in 50 mM Tris-HCl pH 8.0, 100 mM NaCl, 1 mM DTT, 0.3% Tween 20, blocked with 5% BSA; probed with 50 nM purified human MIF for 1 h; detected with rabbit anti-MIF and Cy3 anti-rabbit IgG; hit if SNR of both duplicates over 1.2
Settings: both partners purified

B1: recombinant human MIF (rhMIF) (natural protein, UniProt P14174 1-115, looked up)
chain: MPMFIVNTNVPRASVPDGFLSELTQQLAQATGKPPQYIAVHVVPDQLMAFGGSSEPCALCSLHSIGKIGGAQNRSYSKLLCGLLAERLRISPDRVYINYYDMNAANVGWNNSTFA
notes: No catalogue number printed; also called purified human MIF protein; human recombinant MIF protein; source: bought: R&D Systems
  binding result: binds
